In the data set the test system is CCCCCCCCCCCC(=O)Oc1ccc([N+](=O)[O-])cc1. The experiment in a line: purified protein. Particulars: pH 7.4, 60 °C, substrate 10-30 mM.

Km and kcat data for one substance are collected here from publication PMC10716096, “A scalable overexpression of a thermostable recombinant poly-histidine tag carboxyl esterase under lambda promoter: purification, characterization, and protein modelling” (Journal of Genetic Engineering & Biotechnology, 2023).

Turning to “EstB (6xHis carboxyl-esterase B) (Geobacillus thermoleovorans)”, the Km was 22.756 mM and the kcat is 0.993 s⁻¹.

As a reminder, the Km is the concentration of substrate that gives half-maximal velocity. The term kcat denotes the maximal rate divided by the concentration of active sites.
